According to US20180228802A1:
Substitutions are numbered along the chain they refer to.

B1: Clone No. 1 (antibody, human IgG4 S228P, kappa, V domains shown)
VH: EVQLVQSGAEVKKPGESLRISCKGSGYTFTTYWMHWVRQATGQGLEWMGNIYPGTGGSNFDEKFKNRVTITADKSTSTAYMELSSLRSEDTAVYYCTRWTTGTGAYWGQGTTVTVSS
VL: EIVLTQSPATLSLSPGERATLSCKSSQSLLDSGNQKNFLTWYQQKPGQAPRLLIYWASTRESGVPSRFSGSGSGTEFTLTISSLQPDDFATYYCQNDYSYPYTFGQGTKVEIKR
B2: Clone No. 4 (antibody, human IgG4 S228P, kappa, V domains shown)
VH: EVQLVQSGAEVKKPGESLRISCKGSGYTFTTYWMHWIRQSPSRGLEWLGNIYPGTGGSNFDEKFKNRFTISRDNSKNTLYLQMNSLRAEDTAVYYCTRWTTGTGAYWGQGTTVTVSS
VL: B1 VL with Q48K, R51K, E76D, L79F, D87E, F89I
B3: Clone No. 5 (antibody, human IgG4 S228P, kappa, V domains shown)
VH: B1 VH
VL: B1 VL with Q48K, R51K, E76D, L79F, D87E, F89I
B4: Clone No. 12 (antibody, human IgG4 S228P, kappa, V domains shown)
VH: B1 VH
VL: DIQMTQSPSSLSASVGDRVTITCKSSQSLLDSGNQKNFLTWYLQKPGQSPQLLIYWASTRESGVPSRFSGSGSGTDFTFTISSLEAEDAATYYCQNDYSYPYTFGQGTKVEIKR
B5: Clone No. 2 (antibody, human IgG4 S228P, kappa, V domains shown)
VH: B1 VH
VL: DIQMTQSPSSLSASVGDRVTITCKSSQSLLDSGNQKNFLTWYQQKPGQAPRLLIYWASTRESGIPPRFSGSGYGTDFTLTINNIESEDAAYYFCQNDYSYPYTFGQGTKVEIKR
B6: Clone No. 16 (antibody, human IgG4 S228P, kappa, V domains shown)
VH: B2 VH with I37V, S40A, S42G, R43Q, L48M
VL: EIVLTQSPDFQSVTPKEKVTITCKSSQSLLDSGNQKNFLTWYQQKPGQAPRLLIYWASTRESGVPSRFSGSGSGTDFTFTISSLEAEDAATYYCQNDYSYPYTFGQGTKVEIKR
B7: Clone No. 3 (antibody, human IgG4 S228P, kappa, V domains shown)
VH: B2 VH
VL: B5 VL

Tests used:
[1] = target: PD-1; assay: competition binding, 1st experiment; rank among the clones; competitor not given
[2] = target: PD-1; assay: competition binding, 2nd experiment; rank among the clones; competitor not given
[3] = target: PD-1; assay: FACS; rank of the clone among the humanized BAP049 clones; cells and conditions not described in this filing

Sequence of PD-1 (chain, as listed by the source limits assumed): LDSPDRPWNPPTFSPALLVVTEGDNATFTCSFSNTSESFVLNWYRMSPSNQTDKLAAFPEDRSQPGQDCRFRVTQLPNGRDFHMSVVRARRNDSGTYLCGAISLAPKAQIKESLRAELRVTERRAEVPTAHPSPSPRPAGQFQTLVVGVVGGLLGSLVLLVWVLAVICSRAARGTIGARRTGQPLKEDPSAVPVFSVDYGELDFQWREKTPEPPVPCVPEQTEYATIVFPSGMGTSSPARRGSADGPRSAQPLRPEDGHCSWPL

Binder	Competition Binding, 1st exp. (ranking) [1]	Competition Binding, 2nd exp. (ranking) [2]	Ranking, FACS data [3]
B1	7	2	2
B2	15	15	14
B3	5	> 4	5
B4	8	16	3
B5	3	2	6
B6	16	15	15
B7	8	14	7
